Assay results: patent US20140093892A1 (KOREA RESEARCH INSTITUTE OF BIOSCIENCE AND BIOTECHNOLOGY, published 2014)

Target: T1, CK8 recombinant protein (human cytokeratin 8, tag sequence included) (human, UniProt P05787 1-483)
T1 construct: Expressed in E. coli BL21(DE3) as inclusion bodies, dissolved in 8 M urea/PBS; also called KRT8 Keratin, type II cytoskeletal 8
T1 sequence (looked up): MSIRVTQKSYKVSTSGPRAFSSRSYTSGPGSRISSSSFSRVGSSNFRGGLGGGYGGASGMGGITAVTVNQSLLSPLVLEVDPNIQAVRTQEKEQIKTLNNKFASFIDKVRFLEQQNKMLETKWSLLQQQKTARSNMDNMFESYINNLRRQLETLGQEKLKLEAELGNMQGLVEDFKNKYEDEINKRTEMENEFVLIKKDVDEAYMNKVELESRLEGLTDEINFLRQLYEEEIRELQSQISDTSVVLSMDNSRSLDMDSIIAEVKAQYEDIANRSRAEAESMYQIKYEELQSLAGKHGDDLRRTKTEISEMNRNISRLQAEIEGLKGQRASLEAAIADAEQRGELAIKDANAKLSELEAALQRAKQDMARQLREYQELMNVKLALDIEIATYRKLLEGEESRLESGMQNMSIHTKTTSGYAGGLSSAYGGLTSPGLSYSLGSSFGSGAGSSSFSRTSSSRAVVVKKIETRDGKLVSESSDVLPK
Experiment: overlay of recombinant protein solution (50 µg/ml) on blotted partner protein, read out by TAB-K94 reactivity

- binding result: binds
B1: CK18 recombinant protein (human cytokeratin 18, tag sequence included) (other, UniProt P05783 1-430, looked up, not shown: small tags and cut ends)
chain: MSFTTRSTFSTNYRSLGSVQAPSYGARPVSSAASVYAGAGGSGSRISVSRSTSFRGGMGSGGLATGIAGGLAGMGGIQNEKETMQSLNDRLASYLDRVRSLETENRRLESKIREHLEKKGPQVRDWSHYFKIIEDLRAQIFANTVDNARIVLQIDNARLAADDFRVKYETELAMRQSVENDIHGLRKVIDDTNITRLQLETEIEALKEELLFMKKNHEEEVKGLQAQIASSGLTVEVDAPKSQDLAKIMADIRAQYDELARKNREELDKYWSQQIEESTTVVTTQSAEVGAAETTLTELRRTVQSLEIDLDSMRNLKASLENSLREVEARYALQMEQLNGILLHLESELAQTRAEGQRQAQEYEALLNIKVKLEAEIATYRRLLEDGEDFNLGDALDSSNSMQTIQKTTTRRIVDGKVVSETNDTKVLRH
notes: Expressed in E. coli BL21(DE3) as inclusion bodies, dissolved in 8 M urea/PBS; also called KRT18 Keratin, type I cytoskeletal 18
